{"source": "ChEMBL document CHEMBL1157682", "about": "“In silico prediction of human carboxylesterase-1 (hCES1) metabolism combining docking analyses and MD simulations” (Bioorg Med Chem, 2010)", "key": {"not read": {"substrate": "COC(=O)[C@H](c1ccccc1Cl)N1CCc2sccc2C1", "test": "not read"}, "[1]": {"substrate": "CC(=O)Oc1ccc([N+](=O)[O-])cc1", "test": "(§1) Activity at human recombinant CES1 expressed in baculovirus-infected Spodoptera frugiperda Sf21 cells assessed as substrate hydrolysis by fluorescence assay"}, "[2]": {"substrate": "CC1(C)[C@@H](C=C(Cl)Cl)[C@@H]1C(=O)OCc1cccc(Oc2ccccc2)c1", "test": "as §1"}, "[3]": {"substrate": "CN(C)C(=O)COC(=O)Cc1ccc(OC(=O)c2ccc(NC(=N)N)cc2)cc1", "test": "as §1"}, "[4]": {"substrate": "COc1ccc2cc([C@H](C#N)OC(=O)[C@H]3[C@H](C=C(Cl)Cl)C3(C)C)ccc2c1", "test": "as §1"}, "[5]": {"substrate": "COC(=O)[C@H]1[C@@H](OC(=O)c2ccccc2)C[C@@H]2CC[C@H]1N2C", "test": "as §1"}, "[6]": {"substrate": "COc1ccc2cc([C@H](C#N)OC(=O)[C@@H]3[C@@H](C=C(Cl)Cl)C3(C)C)ccc2c1", "test": "as §1"}, "[7]": {"substrate": "CCc1c2c(nc3ccc(OC(=O)N4CCC(N5CCCCC5)CC4)cc13)-c1cc3c(c(=O)n1C2)COC(=O)[C@]3(O)CC", "test": "as §1"}, "[8]": {"substrate": "CCCCCOC(=O)Nc1nc(=O)n([C@@H]2O[C@H](C)[C@@H](O)[C@H]2O)cc1F", "test": "as §1"}, "[9]": {"substrate": "CC1(C)[C@H](C(=O)OCc2cccc(Oc3ccccc3)c2)[C@@H]1C=C(Cl)Cl", "test": "as §1"}, "[10]": {"substrate": "CC1(C)[C@H](C=C(Cl)Cl)[C@H]1C(=O)OCc1cccc(Oc2ccccc2)c1", "test": "as §1"}, "[11]": {"substrate": "CCOC(=O)[C@H](CCc1ccccc1)N[C@H]1CCc2ccccc2N(CC(=O)O)C1=O", "test": "as §1"}, "[12]": {"substrate": "N[C@@H](CC(=O)O)C(=O)OC[C@H]1O[C@@H](n2cc(F)c(=O)[nH]c2=O)C[C@@H]1O", "test": "as §1"}, "[13]": {"substrate": "COC(=O)[C@H](c1ccccc1)[C@H]1CCCCN1", "test": "as §1"}, "[14]": {"substrate": "CC(C)[C@H](N)C(=O)OC[C@H]1O[C@@H](n2cc(F)c(=O)[nH]c2=O)C[C@@H]1O", "test": "as §1"}, "[15]": {"substrate": "CCOC(=O)[C@H](CCc1ccccc1)N[C@H]1CCCN2CCC[C@@H](C(=O)O)N2C1=O", "test": "as §1"}, "[16]": {"substrate": "CCOC(=O)[C@H](CCc1ccccc1)N[C@H]1CS[C@H](c2cccs2)CN(CC(=O)O)C1=O", "test": "as §1"}, "[17]": {"substrate": "CC(=O)Oc1ccc2c(C)cc(=O)oc2c1", "test": "as §1"}, "[18]": {"substrate": "COc1ccc2cc(C(C#N)OC(=O)C3C(C)(C)C3(C)C)ccc2c1", "test": "as §1"}, "[19]": {"substrate": "N[C@@H](Cc1ccccc1)C(=O)OC[C@H]1O[C@@H](n2cc(F)c(=O)[nH]c2=O)C[C@@H]1O", "test": "as §1"}, "[20]": {"substrate": "COc1ccc2cc([C@@H](C#N)OC(=O)[C@H]3[C@@H](C=C(Cl)Cl)C3(C)C)ccc2c1", "test": "as §1"}, "[21]": {"substrate": "CCOC(=O)[C@H](CCc1ccccc1)N[C@@H](C)C(=O)N(CC(=O)O)C1Cc2ccccc2C1", "test": "as §1"}, "[22]": {"substrate": "CC(C)=C[C@H]1[C@H](C(=O)OCc2coc(Cc3ccccc3)c2)C1(C)C", "test": "as §1"}, "[23]": {"substrate": "CCOC(=O)[C@H](CCc1ccccc1)N[C@@H](C)C(=O)N1C(=O)N(C)C[C@H]1C(=O)O", "test": "as §1"}, "[24]": {"substrate": "CCOC(=O)C1(c2ccccc2)CCN(C)CC1", "test": "as §1"}, "[25]": {"substrate": "CC(=O)O[C@H]1C=C[C@H]2[C@H]3Cc4ccc(O)c5c4[C@@]2(CCN3C)[C@H]1O5", "test": "as §1"}, "[26]": {"substrate": "CC1(C)[C@H](C=C(Cl)Cl)[C@@H]1C(=O)OCc1cccc(Oc2ccccc2)c1", "test": "as §1"}, "[27]": {"substrate": "CCOC(=O)C1=C[C@@H](OC(CC)CC)[C@H](NC(C)=O)[C@@H](N)C1", "test": "as §1"}, "[28]": {"substrate": "[H][C@@]1([C@@H](C(=O)OC)c2ccccc2)CCCCN1", "test": "as §1"}, "[29]": {"substrate": "CC(C)C[C@H](N)C(=O)OC[C@H]1O[C@@H](n2cc(F)c(=O)[nH]c2=O)C[C@@H]1O", "test": "as §1"}, "[30]": {"substrate": "COc1ccc2cc([C@@H](C#N)OC(=O)[C@H]3[C@H](C=C(Cl)Cl)C3(C)C)ccc2c1", "test": "as §1"}, "[31]": {"substrate": "CCOC(=O)[C@H](CCc1ccccc1)N[C@@H](C)C(=O)N1Cc2ccccc2C[C@H]1C(=O)O", "test": "as §1"}, "[32]": {"substrate": "COc1ccc2cc([C@@H](C#N)OC(=O)[C@@H]3[C@@H](C=C(Cl)Cl)C3(C)C)ccc2c1", "test": "as §1"}, "[33]": {"substrate": "COc1ccc2cc([C@H](C#N)OC(=O)[C@H]3[C@@H](C=C(Cl)Cl)C3(C)C)ccc2c1", "test": "as §1"}, "[34]": {"substrate": "COc1ccc(C(=O)N2CCCC2=O)cc1", "test": "as §1"}, "[35]": {"substrate": "COc1ccc2cc([C@H](C#N)OC(=O)[C@@H]3[C@H](C=C(Cl)Cl)C3(C)C)ccc2c1", "test": "as §1"}, "[36]": {"substrate": "CC(=O)Oc1ccc2c3c1O[C@H]1[C@@H](OC(C)=O)C=C[C@H]4[C@@H](C2)N(C)CC[C@@]341", "test": "as §1"}, "[37]": {"substrate": "CCCC(=O)Oc1ccc([N+](=O)[O-])cc1", "test": "as §1"}, "[38]": {"substrate": "COc1cc(C(=O)OCCCN2CCCN(CCCOC(=O)c3cc(OC)c(OC)c(OC)c3)CC2)cc(OC)c1OC", "test": "as §1"}}, "note": "Values joined by “and” are separate entries in the source; they are usually repeats but may differ in a detail not shown here. Equal entries are not always repeated."}
{"protein": "Liver carboxylesterase 1 (Homo sapiens) (protein) MWLRAFILATLSASAAWGHPSSPPVVDTVHGKVLGKFVSLEGFAQPVAIFLGIPFAKPPLGPLRFTPPQPAEPWSFVKNATSYPPMCTQDPKAGQLLSELFTNRKENIPLKLSEDCLYLNIYTPADLTKKNRLPVMVWIHGGGLMVGAASTYDGLALAAHENVVVVTIQYRLGIWGFFSTGDEHSRGNWGHLDQVAALRWVQDNIASFGGNPGSVTIFGESAGGESVSVLVLSPLAKNLFHRAISESGVALTSVLVKKGDVKPLAEQIAITAGCKTTTSAVMVHCLRQKTEEELLETTLKMKFLSLDLQGDPRESQPLLGTVIDGMLLLKTPEELQAERNFHTVPYMVGINKQEFGWLIPMQLMSYPLSEGQLDQKTAMSLLWKSYPLVCIAKELIPEATEKYLGGTDDTVKKKDLFLDLIADVMFGVPSVIVARNHRDAGAPTYMYEFQYRPSFSSDMKPKTVIGDHGDELFSVFGAPFLKEGASEEEIRLSKMVMKFWANFARNGNPNGEGLPHWPEYNQKEGYLQIGANTQAAQKLKDKEVAFWTNLFAKKAVEKPPQTEHIEL", "values": [{"measurement": "Km", "setting": "not read", "value": 55.7, "unit": "µM"}, {"measurement": "Km", "setting": "[1]", "value": 359, "unit": "µM"}, {"measurement": "Km", "setting": "[2]", "value": 9.8, "unit": "µM"}, {"measurement": "Km", "setting": "[3]", "value": 707, "unit": "µM"}, {"measurement": "Km", "setting": "[4]", "value": 1.9, "unit": "µM"}, {"measurement": "Km", "setting": "[5]", "value": 120, "unit": "µM"}, {"measurement": "Km", "setting": "[6]", "value": 1.7, "unit": "µM"}, {"measurement": "Km", "setting": "[7]", "value": 1450, "unit": "µM"}, {"measurement": "Km", "setting": "[8]", "value": 1300, "unit": "µM"}, {"measurement": "Km", "setting": "[9]", "value": 23.8, "unit": "µM"}, {"measurement": "Km", "setting": "[10]", "value": 9.8, "unit": "µM"}, {"measurement": "Km", "setting": "[11]", "value": 734, "unit": "µM"}, {"measurement": "Km", "setting": "[12]", "value": 3000, "unit": "µM"}, {"measurement": "Km", "setting": "[13]", "value": 43.8, "unit": "µM"}, {"measurement": "Km", "setting": "[14]", "value": 3580, "unit": "µM"}, {"measurement": "Km", "setting": "[15]", "value": 1300, "unit": "µM"}, {"measurement": "Km", "setting": "[16]", "value": 786, "unit": "µM"}, {"measurement": "Km", "setting": "[17]", "value": 800, "unit": "µM"}, {"measurement": "Km", "setting": "[18]", "value": 1.5, "unit": "µM"}, {"measurement": "Km", "setting": "[19]", "value": 460, "unit": "µM"}, {"measurement": "Km", "setting": "[20]", "value": 1.4, "unit": "µM"}, {"measurement": "Km", "setting": "[21]", "value": 1500, "unit": "µM"}, {"measurement": "Km", "setting": "[22]", "value": 6.72, "unit": "µM"}, {"measurement": "Km", "setting": "[23]", "value": 287, "unit": "µM"}, {"measurement": "Km", "setting": "[24]", "value": 1900, "unit": "µM"}, {"measurement": "Km", "setting": "[25]", "value": 8300, "unit": "µM"}, {"measurement": "Km", "setting": "[26]", "value": 23.8, "unit": "µM"}, {"measurement": "Km", "setting": "[27]", "value": 177, "unit": "µM"}, {"measurement": "Km", "setting": "[28]", "value": 89.9, "unit": "µM"}, {"measurement": "Km", "setting": "[29]", "value": 970, "unit": "µM"}, {"measurement": "Km", "setting": "[30]", "value": 2.4, "unit": "µM"}, {"measurement": "Km", "setting": "[31]", "value": 134, "unit": "µM"}, {"measurement": "Km", "setting": "[32]", "value": 0.7, "unit": "µM"}, {"measurement": "Km", "setting": "[33]", "value": 1.5, "unit": "µM"}, {"measurement": "Km", "setting": "[34]", "value": "85 µM and 95 µM"}, {"measurement": "Km", "setting": "[35]", "value": 0.3, "unit": "µM"}, {"measurement": "Km", "setting": "[36]", "value": 6300, "unit": "µM"}, {"measurement": "Km", "setting": "[37]", "value": 130, "unit": "µM"}, {"measurement": "Km", "setting": "[38]", "value": 154, "unit": "µM"}]}
